Test results published in PMC12043510.

How the values were obtained:
[1] = molecular target: MBP–P2^1–786 (rice dwarf virus (RDV)); assay: MST
[2] = molecular target: GST–CP (rice stripe virus (RSV)); assay: MST

## MBP–RBRL (from UniProt Q75LV6 1-540) (enzyme)
[1]
  Kd: 183 nM
[2]
  Kd: 5.28 nM
